Experimental data taken from patent US20240262917.

Assays:
[1] = target: ALK LF655del cleavage site mutant
[2] = target: Full-length human anaplastic lymphoma kinase (ALK) receptor, wild type
Sequence of Full-length human anaplastic lymphoma kinase (ALK) receptor, wild type (chain, as listed by the source): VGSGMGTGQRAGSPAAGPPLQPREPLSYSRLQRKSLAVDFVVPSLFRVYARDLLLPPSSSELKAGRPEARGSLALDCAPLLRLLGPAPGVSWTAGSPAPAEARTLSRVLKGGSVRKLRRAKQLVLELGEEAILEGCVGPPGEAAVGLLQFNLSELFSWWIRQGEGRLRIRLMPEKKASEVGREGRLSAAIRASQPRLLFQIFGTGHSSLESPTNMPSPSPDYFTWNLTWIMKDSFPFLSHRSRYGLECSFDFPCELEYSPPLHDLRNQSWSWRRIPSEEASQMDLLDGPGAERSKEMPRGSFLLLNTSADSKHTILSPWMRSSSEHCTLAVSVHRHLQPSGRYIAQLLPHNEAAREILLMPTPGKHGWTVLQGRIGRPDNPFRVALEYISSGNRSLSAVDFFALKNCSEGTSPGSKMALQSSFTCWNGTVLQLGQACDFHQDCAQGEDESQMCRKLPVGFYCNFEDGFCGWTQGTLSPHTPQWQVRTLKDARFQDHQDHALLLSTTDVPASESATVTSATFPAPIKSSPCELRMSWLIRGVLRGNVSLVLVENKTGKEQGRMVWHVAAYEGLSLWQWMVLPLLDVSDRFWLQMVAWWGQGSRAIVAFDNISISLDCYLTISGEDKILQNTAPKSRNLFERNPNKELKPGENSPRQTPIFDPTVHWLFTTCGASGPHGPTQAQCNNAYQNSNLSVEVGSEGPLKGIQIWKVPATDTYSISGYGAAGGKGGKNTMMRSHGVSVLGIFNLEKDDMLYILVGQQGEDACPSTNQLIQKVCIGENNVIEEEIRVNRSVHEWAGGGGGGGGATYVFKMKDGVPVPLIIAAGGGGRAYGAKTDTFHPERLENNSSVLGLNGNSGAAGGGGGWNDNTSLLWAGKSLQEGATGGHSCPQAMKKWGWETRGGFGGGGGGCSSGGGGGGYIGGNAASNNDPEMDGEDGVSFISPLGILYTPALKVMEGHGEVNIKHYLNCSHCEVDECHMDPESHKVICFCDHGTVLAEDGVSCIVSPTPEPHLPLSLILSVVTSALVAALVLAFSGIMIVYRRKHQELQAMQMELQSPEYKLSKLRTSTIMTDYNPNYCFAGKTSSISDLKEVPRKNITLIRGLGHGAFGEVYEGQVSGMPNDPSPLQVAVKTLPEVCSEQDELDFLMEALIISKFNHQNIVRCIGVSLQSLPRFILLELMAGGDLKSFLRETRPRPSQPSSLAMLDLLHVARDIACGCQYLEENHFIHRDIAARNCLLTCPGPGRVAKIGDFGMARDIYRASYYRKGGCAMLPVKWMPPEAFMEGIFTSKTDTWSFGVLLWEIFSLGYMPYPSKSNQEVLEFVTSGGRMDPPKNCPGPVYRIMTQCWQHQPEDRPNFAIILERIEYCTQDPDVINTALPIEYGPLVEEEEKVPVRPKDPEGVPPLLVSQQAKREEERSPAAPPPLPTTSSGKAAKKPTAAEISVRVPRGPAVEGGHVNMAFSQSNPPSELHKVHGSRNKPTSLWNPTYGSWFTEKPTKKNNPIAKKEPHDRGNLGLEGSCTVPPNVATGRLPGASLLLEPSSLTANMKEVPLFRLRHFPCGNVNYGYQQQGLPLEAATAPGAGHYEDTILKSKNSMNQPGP

Sequence of ALK LF655del cleavage site mutant (chain, as listed by the source mutant): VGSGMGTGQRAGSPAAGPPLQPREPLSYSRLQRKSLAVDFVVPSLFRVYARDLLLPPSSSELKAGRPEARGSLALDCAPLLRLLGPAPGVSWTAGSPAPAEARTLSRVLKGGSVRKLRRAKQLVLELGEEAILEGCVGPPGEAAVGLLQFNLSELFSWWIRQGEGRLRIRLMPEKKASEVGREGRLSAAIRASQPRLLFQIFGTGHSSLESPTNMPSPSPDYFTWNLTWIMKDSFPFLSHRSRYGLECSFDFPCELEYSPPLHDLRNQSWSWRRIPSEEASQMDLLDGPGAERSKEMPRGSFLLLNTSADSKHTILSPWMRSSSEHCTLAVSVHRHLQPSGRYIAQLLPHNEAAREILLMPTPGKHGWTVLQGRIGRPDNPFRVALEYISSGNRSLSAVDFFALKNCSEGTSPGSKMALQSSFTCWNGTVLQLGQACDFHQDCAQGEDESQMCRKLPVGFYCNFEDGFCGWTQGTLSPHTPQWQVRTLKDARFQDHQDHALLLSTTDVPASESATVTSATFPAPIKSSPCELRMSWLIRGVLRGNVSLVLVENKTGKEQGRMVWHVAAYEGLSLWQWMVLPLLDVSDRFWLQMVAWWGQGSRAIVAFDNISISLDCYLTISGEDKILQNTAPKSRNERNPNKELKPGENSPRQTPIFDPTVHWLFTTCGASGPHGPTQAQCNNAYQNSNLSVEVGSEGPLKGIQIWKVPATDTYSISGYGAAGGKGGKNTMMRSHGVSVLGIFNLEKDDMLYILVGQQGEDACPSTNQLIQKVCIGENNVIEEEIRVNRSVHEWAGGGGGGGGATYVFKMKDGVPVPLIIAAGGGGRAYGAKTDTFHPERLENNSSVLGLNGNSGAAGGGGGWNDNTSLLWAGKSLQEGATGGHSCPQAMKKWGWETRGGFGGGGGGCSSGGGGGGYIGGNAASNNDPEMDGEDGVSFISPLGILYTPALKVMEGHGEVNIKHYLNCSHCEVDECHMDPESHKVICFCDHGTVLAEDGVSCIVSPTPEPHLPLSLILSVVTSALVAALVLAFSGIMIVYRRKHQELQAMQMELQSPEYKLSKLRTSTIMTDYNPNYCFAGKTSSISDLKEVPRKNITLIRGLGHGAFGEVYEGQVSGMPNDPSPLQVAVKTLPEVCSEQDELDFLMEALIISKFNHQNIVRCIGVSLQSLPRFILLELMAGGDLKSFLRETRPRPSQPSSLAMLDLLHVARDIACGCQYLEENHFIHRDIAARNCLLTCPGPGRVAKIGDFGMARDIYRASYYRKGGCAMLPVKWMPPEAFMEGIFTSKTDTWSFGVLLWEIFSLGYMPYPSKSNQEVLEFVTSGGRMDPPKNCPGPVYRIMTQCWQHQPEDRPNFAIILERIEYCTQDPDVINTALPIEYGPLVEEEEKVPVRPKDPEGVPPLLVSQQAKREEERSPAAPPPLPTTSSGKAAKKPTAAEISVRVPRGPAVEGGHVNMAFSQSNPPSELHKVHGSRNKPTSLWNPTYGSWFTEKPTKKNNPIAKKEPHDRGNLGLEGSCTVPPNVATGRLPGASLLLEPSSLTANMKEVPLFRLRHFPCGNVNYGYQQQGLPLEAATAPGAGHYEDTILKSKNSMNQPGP

B1: Full-length recombinant human MMP-9 (protein)
chain: APRQRQSTLVLFPGDLRTNLTDRQLAEEYLYRYGYTRVAEMRGESKSLGPALLLLQKQLSLPETGELDSATLKAMRTPRCGVPDLGRFQTFEGDLKWHHHNITYWIQNYSEDLPRAVIDDAFARAFALWSAVTPLTFTRVYSRDADIVIQFGVAEHGDGYPFDGKDGLLAHAFPPGPGIQGDAHFDDDELWSLGKGVVVPTRFGNADGAACHFPFIFEGRSYSACTTDGRSDGLPWCSTTANYDTDDRFGFCPSERLYTQDGNADGKPCQFPFIFQGQSYSACTTDGRSDGYRWCATTANYDRDKLFGFCPTRADSTVMGGNSAGELCVFPFTFLGKEYSTCTSEGRGDGRLWCATTSNFDSDKKWGFCPDQGYSLFLVAAHEFGHALGLDHSSVPEALMYPMYRFTEGPPLHKDDVNGIRHLYGPRPEPEPRPPTTTTPQPTAPPTVCPTGPPTVHPSERPTAGPTGPPSAGPTGPPTAGPSTATTVPLSPVDDACNVNIFDAIAEIGNQLYLFKDGKYWRFSEGRGSRPQGPFLIADKWPALPRKLDSVFEERLSKKLFFFSGRQVWVYTGASVLGPRRLDKLGLGADVAQVTGALRSGRGKMLLFSGRRLWRFDVKAQMVDPRSASEVDRMFPGVPLDTHDVFQYREKAYFCQDRFYWRVSSRSELNQVDQVGYVTYDILQCPED
in vitro cleavage assay (western blot of ALK) [1]: but not the ALK LF655del protein
in vitro cleavage assay (western blot of ALK) [2]: Treatment of purified WT ALK, but not the ALK LF655del protein, with recombinant human MMP-9 resulted in ALK cleavage
